Measurements reported in US20240141059A1 (Bristol-Myers Squibb, published 2024).

T1: human CD73 on cells (human, UniProt P21589 27-549)
T1 sequence (looked up): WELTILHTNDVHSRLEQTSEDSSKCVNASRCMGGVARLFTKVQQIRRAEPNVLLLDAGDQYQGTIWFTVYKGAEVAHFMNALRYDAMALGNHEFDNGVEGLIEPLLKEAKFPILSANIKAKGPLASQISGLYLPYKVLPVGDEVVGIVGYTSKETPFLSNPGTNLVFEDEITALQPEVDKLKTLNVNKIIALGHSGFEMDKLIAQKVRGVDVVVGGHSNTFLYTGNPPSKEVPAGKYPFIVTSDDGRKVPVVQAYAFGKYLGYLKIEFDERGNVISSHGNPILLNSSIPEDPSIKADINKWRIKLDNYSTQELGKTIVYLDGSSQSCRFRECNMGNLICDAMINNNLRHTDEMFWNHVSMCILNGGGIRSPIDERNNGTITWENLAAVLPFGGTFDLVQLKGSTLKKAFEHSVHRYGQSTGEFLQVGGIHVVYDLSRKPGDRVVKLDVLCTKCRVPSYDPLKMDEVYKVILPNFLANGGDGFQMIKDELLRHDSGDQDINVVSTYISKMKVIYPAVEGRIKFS


target: T1, human CD73 on cells; test: cell-based or functional assay

internalization T1/2, Calu6	internalization T1/2, NCI-H292	internalization Ymax, Calu6	internalization Ymax, NCI-H292	Binder
20.1 min	16.3 min	81.7%	91.6%	CD73.4-IgG2.3-plusGGG (antibody, also called mAb-CD73.4-IgG2.3-plusGGG; CD73.4-Vh-hHC-IgG2.3-plusGGG) heavy: QVQLVESGGGVVQPGRSLRLSCAASGFTFSNYGMHWVRQAPGKGLEWVAVILYDGSNKYYPDSVKGRFTISRDNSKNTLYLQMNSLRAEDTAVYYCARGGSSWYPDSFDIWGQGTMVTVSSASTKGPSVFPLAPCSRSTSESTAALGCLVKDYFPEPVTVSWNSGALTSGVHTFPAVLQSSGLYSLSSVVTVPSSNFGTQTYTCNVDHKPSNTKVDKTVERKSCVEGGGCPPCPAPPVAGPSVFLFPPKPKDTLMISRTPEVTCVVVDVSHEDPEVQFNWYVDGVEVHNAKTKPREEQFNSTFRVVSVLTVVHQDWLNGKEYKCKVSNKGLPAPIEKTISKTKGQPREPQVYTLPPSREEMTKNQVSLTCLVKGFYPSDIAVEWESNGQPENNYKTTPPMLDSDGSFFLYSKLTVDKSRWQQGNVFSCSVMHEALHNHYTQKSLSLSPGK light: not shown
17.2 min	15.4 min	80.2%	89.6%	CD73.4-IgG2.5-plusTHT (antibody, also called mAb-CD73.4-IgG2.5plusTHT/LC; CD73.4-Vh-hHC-IgG2.5plusTHT/LC) heavy: QVQLVESGGGVVQPGRSLRLSCAASGFTFSNYGMHWVRQAPGKGLEWVAVILYDGSNKYYPDSVKGRFTISRDNSKNTLYLQMNSLRAEDTAVYYCARGGSSWYPDSFDIWGQGTMVTVSSASTKGPSVFPLAPSSRSTSESTAALGCLVKDYFPEPVTVSWNSGALTSGVHTFPAVLQSSGLYSLSSVVTVPSSNFGTQTYTCNVDHKPSNTKVDKTVERKCCVETHTCPPCPAPPVAGPSVFLFPPKPKDTLMISRTPEVTCVVVDVSHEDPEVQFNWYVDGVEVHNAKTKPREEQFNSTFRVVSVLTVVHQDWLNGKEYKCKVSNKGLPAPIEKTISKTKGQPREPQVYTLPPSREEMTKNQVSLTCLVKGFYPSDIAVEWESNGQPENNYKTTPPMLDSDGSFFLYSKLTVDKSRWQQGNVFSCSVMHEALHNHYTQKSLSLSPGK light: not shown
17 min	15.4 min	76%	90.8%	CD73.4-IgG2.5G1-KH (antibody, also called mAb-CD73.4-IgG2.5G1-KH; CD73.4-Vh-hHC-IgG2.5G1-KH) heavy: QVQLVESGGGVVQPGRSLRLSCAASGFTFSNYGMHWVRQAPGKGLEWVAVILYDGSNKYYPDSVKGRFTISRDNSKNTLYLQMNSLRAEDTAVYYCARGGSSWYPDSFDIWGQGTMVTVSSASTKGPSVFPLAPSSRSTSESTAALGCLVKDYFPEPVTVSWNSGALTSGVHTFPAVLQSSGLYSLSSVVTVPSSNFGTQTYTCNVDHKPSNTKVDKTVERKCCVECPPCPAPPVAGPSVFLFPPKPKDTLMISRTPEVTCVVVDVSHEDPEVKFNWYVDGVEVHNAKTKPREEQYNSTYRVVSVLTVLHQDWLNGKEYKCKVSNKALPAPIEKTISKAKGQPREPQVYTLPPSREEMTKNQVSLTCLVKGFYPSDIAVEWESNGQPENNYKTTPPVLDSDGSFFLYSKLTVDKSRWQQGNVFSCSVMHEALHNHYTQKSLSLSPGK light: not shown
23.8 min	16.8 min	81.6%	91.6%	CD73.4-IgG2.3G1-KH (antibody, also called mAb-CD73.4-IgG2.3G1-KH; CD73.4-Vh-hHC-IgG2.3G1-KH) heavy: QVQLVESGGGVVQPGRSLRLSCAASGFTFSNYGMHWVRQAPGKGLEWVAVILYDGSNKYYPDSVKGRFTISRDNSKNTLYLQMNSLRAEDTAVYYCARGGSSWYPDSFDIWGQGTMVTVSSASTKGPSVFPLAPCSRSTSESTAALGCLVKDYFPEPVTVSWNSGALTSGVHTFPAVLQSSGLYSLSSVVTVPSSNFGTQTYTCNVDHKPSNTKVDKTVERKSCVECPPCPAPPVAGPSVFLFPPKPKDTLMISRTPEVTCVVVDVSHEDPEVKFNWYVDGVEVHNAKTKPREEQYNSTYRVVSVLTVLHQDWLNGKEYKCKVSNKALPAPIEKTISKAKGQPREPQVYTLPPSREEMTKNQVSLTCLVKGFYPSDIAVEWESNGQPENNYKTTPPVLDSDGSFFLYSKLTVDKSRWQQGNVFSCSVMHEALHNHYTQKSLSLSPGK light: not shown
20.9 min	18.3 min	79%	89.6%	CD73.4-IgG2.5 (antibody, also called mAb-CD73.4-IgG2.5; CD73.4-Vh-hHC-IgG2.5) heavy: QVQLVESGGGVVQPGRSLRLSCAASGFTFSNYGMHWVRQAPGKGLEWVAVILYDGSNKYYPDSVKGRFTISRDNSKNTLYLQMNSLRAEDTAVYYCARGGSSWYPDSFDIWGQGTMVTVSSASTKGPSVFPLAPSSRSTSESTAALGCLVKDYFPEPVTVSWNSGALTSGVHTFPAVLQSSGLYSLSSVVTVPSSNFGTQTYTCNVDHKPSNTKVDKTVERKCCVECPPCPAPPVAGPSVFLFPPKPKDTLMISRTPEVTCVVVDVSHEDPEVQFNWYVDGVEVHNAKTKPREEQFNSTFRVVSVLTVVHQDWLNGKEYKCKVSNKGLPAPIEKTISKTKGQPREPQVYTLPPSREEMTKNQVSLTCLVKGFYPSDIAVEWESNGQPENNYKTTPPMLDSDGSFFLYSKLTVDKSRWQQGNVFSCSVMHEALHNHYTQKSLSLSPGK light: not shown
21.2 min	18 min	79.6%	90.9%	CD73.4-IgG2.5G1.1f-KH (antibody, also called mAb-CD73.4-IgG2.5G1.1f-KH; CD73.4-Vh-hHC-IgG2.5G1.1f-KH) heavy: QVQLVESGGGVVQPGRSLRLSCAASGFTFSNYGMHWVRQAPGKGLEWVAVILYDGSNKYYPDSVKGRFTISRDNSKNTLYLQMNSLRAEDTAVYYCARGGSSWYPDSFDIWGQGTMVTVSSASTKGPSVFPLAPSSRSTSESTAALGCLVKDYFPEPVTVSWNSGALTSGVHTFPAVLQSSGLYSLSSVVTVPSSNFGTQTYTCNVDHKPSNTKVDKTVERKCCVECPPCPAPPVAGPSVFLFPPKPKDTLMISRTPEVTCVVVDVSHEDPEVKFNWYVDGVEVHNAKTKPREEQYNSTYRVVSVLTVLHQDWLNGKEYKCKVSNKALPSSIEKTISKAKGQPREPQVYTLPPSREEMTKNQVSLTCLVKGFYPSDIAVEWESNGQPENNYKTTPPVLDSDGSFFLYSKLTVDKSRWQQGNVFSCSVMHEALHNHYTQKSLSLSPGK light: not shown
